Results on one protein are retold here after paper PMC4858972, “Structural and Biochemical Characterization of the Early and Late Enzymes in the Lignin β-Aryl Ether Cleavage Pathway from Sphingobium sp. SYK-6” (The Journal of Biological Chemistry, 2016).

Substrate in series [1]: COc1cc([C@H](O)[C@H](CO)Oc2ccccc2OC)ccc1O
The series is described as follows: purified protein. The settings on record: 5 mM NAD+, pH 9.0, 30 °C. In kind it is biochemical, Sphingobium sp. SYK-6.

Substrate in series [2]: COc1cc([C@H](O)[C@@H](CO)Oc2ccccc2OC)ccc1O
Kind of series: purified protein. In kind it is biochemical, Sphingobium sp. SYK-6. The conditions noted are these: 5 mM NAD+, pH 9.0, 30 °C.

B1: LigL (Sphingobium sp. SYK-6) (protein)
chain: MDIAGTTAFITGGASGIGFGIAQRLLANGARLVLADIRQDHLDEARQFFEERQQGRNVHTIRLDVSDRAQMAEAARECEAVMGGPDILINNAGIDPSGPFKDATYQDWDYGLAINLMGPINGIMAFTPGMRARGRGGHIVNTASLAGLTPMPSFMAIYATAKAAVITLTETIRDSMAEDNIGVTVLMPGPIKSRIHESGQNRPERFRAGSGLAETEQQLAKRVVADNWMEPTEVGDMIVDAIVHNKLYVSTHGNWRETCEARFQALLDSMPEARPFDFGASLAVPKEEA
notes: synthetic gene in pCPD, C-terminal V. cholerae MARTX cysteine protease domain (CPD)-His tag self-cleaved after a Leu, expressed in E. coli (NEB Express), biological dimer
For the protein B1, in the series “purified protein [1]”, the Michaelis-Menten constant (Km) (usually the substrate concentration at which the rate is half of its maximum) was determined as 10.9 ± 0.8 µM; the Vmax (as a rule, the top rate of the reaction or transport when substrate is in excess) worked out at 33.7 µmol/min/mg; the catalytic constant (kcat) (as a rule, the maximal rate divided by the concentration of active sites) was found to be 7.5 ± 0.1 s⁻¹; the kcat/Km (usually the second-order rate constant that governs catalysis at low substrate concentration) stood at 688000 ± 53000 M⁻¹ s⁻¹. For the same protein, in “purified protein [2]”, the Km stood at 20.3 ± 3.2 µM, the Vmax is 21.8 µmol/min/mg, the kcat is 4.9 ± 0.3 s⁻¹ and the kcat/Km came out at 240000 ± 41000 M⁻¹ s⁻¹.
